Measurements published in patent US20090169546A1.

Target: HMG1 purified from calf (bovine) thymus (calf (bovine)) (UniProt P10103)
Assay: cell-based or functional assay

HMG1 purified from calf (bovine) thymus (calf (bovine)), sequence (P10103 2-215 limits assumed): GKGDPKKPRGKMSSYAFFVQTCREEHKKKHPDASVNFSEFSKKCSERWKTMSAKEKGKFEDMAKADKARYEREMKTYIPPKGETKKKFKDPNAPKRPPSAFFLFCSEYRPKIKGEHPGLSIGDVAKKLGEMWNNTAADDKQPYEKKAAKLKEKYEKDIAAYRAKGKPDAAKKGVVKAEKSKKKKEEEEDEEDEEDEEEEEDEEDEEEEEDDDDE

## RAGE-Fc fusion protein
  IFN-a release from mouse bone marrow cells treated with CpG-A and thymus HMG1: > 95%
